Reference: paper PMC2408619

Target: T1, Bordetella bacteriophage major tropism determinant variant Mtd-P1 (Bordetella bacteriophage BPP-1), Q775D6
T1 chain: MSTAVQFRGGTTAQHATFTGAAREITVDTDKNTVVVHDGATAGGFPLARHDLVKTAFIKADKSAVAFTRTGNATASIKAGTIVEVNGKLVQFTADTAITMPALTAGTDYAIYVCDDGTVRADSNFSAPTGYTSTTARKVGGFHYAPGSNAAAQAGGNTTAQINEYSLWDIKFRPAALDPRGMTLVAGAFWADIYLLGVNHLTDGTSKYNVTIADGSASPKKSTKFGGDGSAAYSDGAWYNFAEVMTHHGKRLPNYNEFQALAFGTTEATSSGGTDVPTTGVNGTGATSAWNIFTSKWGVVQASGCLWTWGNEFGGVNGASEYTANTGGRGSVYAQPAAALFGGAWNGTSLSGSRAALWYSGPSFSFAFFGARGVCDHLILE
Test: crystal structure; Mtd-P1·Prn-E complex formed with ~1.6-fold molar excess of Mtd-P1 trimers over His-tagged Prn-E, isolated by Ni2+-chelation and Superdex 200; crystals at 25 °C in 2 M NaCl, 100 mM Tris pH 8.5, 200 mM Li2SO4; 3.16 Å
Conditions: remark: other sources report otherwise

B1: Bordetella bacteriophage major tropism determinant variant Mtd-P1, Q775D6 1-381 (natural protein)
chain: T1 chain
- stoichiometry N: 3
